Among the data in patent US20100015637A1 (AbbVie / Abbott, published 2010) are % Inhibition, PlGF-1 Measured and RLU values, retold here.

The target in assay [1] is human PlGF-1 comprising amino acids 1-137 produced in human embryonic kidney cells (human) (UniProt P49763). Briefly: Format 2 …, capture MAb264, detection Pb264; sFlt-1 613 pmol/L (ratio 20).
Assay [2] has the same target. Briefly: Format 1 …, capture 2-826-335, detection 1-255-713; sFlt-1 4600 pmol/L (ratio 150).
Assay [3] has the same target. Description: Format 2 …, capture MAb264, detection Pb264; sFlt-1 2300 pmol/L (ratio 75).
For assay [4], the target named is recombinant human PlGF-1 (comprising amino acids 1-131) expressed in E. coli (R&D Systems) (human) (UniProt P49763). Briefly: … sandwich, capture MAb826, detection pAb264; antigen 1500 pg/mL.
Assay [5] addresses T1, CHO human PlGF-1 fragment (comprising amino acids 17-131; ATCC PTA-8540) (human, UniProt P49763 35-221).
T1 sequence: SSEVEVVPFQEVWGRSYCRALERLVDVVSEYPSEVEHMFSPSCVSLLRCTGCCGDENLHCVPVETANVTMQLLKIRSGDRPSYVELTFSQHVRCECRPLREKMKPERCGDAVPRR
Description: … sandwich, capture MAb255, detection pAb264; antigen 1500 pg/mL.

Take “native sFlt-1, isolated from human placental tissue (from UniProt P17948 27-687) (receptor)”: the % Inhibition in assay [1] was found to be 89.5%; in assay [2] it was 95%; in assay [3], 95%. Also, the PlGF-1 Measured in assay [1] amounted to 82.9 pg/mL; in assay [2], 51.3 pg/mL; in assay [3], 39.7 pg/mL.

B1: monoclonal antibody 2-826-335 (produced by murine hybridoma cell line 2-826-335, ATCC PTA-8539) (antibody, mouse IgG1, V domains shown)
VH: QVQLKQSGPGLVQPSQSLSITCTVSGFSLTTYGIHWVRQSPGKGLEWLGVMWSGGDTDYDAAFISRLSISKDNSKSQVFFKMNSLQANDTGIYYCARYRFYGMDYWGQGTSVTVSS
VL: AIQMTQSSSSFSVSLGDRVTITCKASEDIYNRFAWYQQKPGNAPRLLISGAASLEAGVPSRFSGSGSGQDYTLSITSLQTEDVATYYCQQYWSTPWTFGGGTKLEIKR
notes: also called MAb826
As for B1, in assay [4], the RLU was 1.08e+06 RLU.

B2: monoclonal antibody 1-255-713 (produced by murine hybridoma cell line 1-255-713, ATCC PTA-8536) (antibody, mouse IgG2a, V domains shown)
VH: QVHLQQSGAELMKPGASVKISCKATGYTFSSYWIEWVKQRPGHGLEWIGEILPGSVSNNFNEKFKDKATLTADPSSNTAYIQVSSLTSEDSAVYYCARSTGFYYGGNYFDHWGQGTTLAVSS
VL: DVVMTQTPLSLPVSPGDQASISCRSSQSLVHSNGHTYLHWYLQKPGQSPKLLIYKVSNRFSGVPDRVSGSGSGTDFTLKISRVEAEDLGVYFCSQSTHVPPTFGGGTKLEIKR
notes: also called MAb255
In assay [5], B2 yielded an RLU of 1.25e+06 RLU.
